assay: soluble on expression in E. coli; label from the status in PepcDB or PDB records

Sequence	soluble on expression in E. coli
MDWSEERTATLKKLWLEGLSASQVARQLGGVSRSAVIGKVHRLGITVRETPVRQRATTARAPSRISVRQRPSRDVATPRVAPRYERIEEDLLPTSGILGLGAHSCRWPIGHPENDDFGFCGRPKASARGSYCEQHSQGAFRRLSGGQALEAWALKGVKEKRIQPRLVLEHHHHHH	not soluble
MDYRFGRQYRLLKTDDFSSVFAFRNRRSRDLLQVSRSNGNGLGHPRIGLVVGKKTAKRANERNYMKRVIRDWFRLNKNRLPPQDFVVRVHRKFDRATAKQARAELAQLMFGNPATGCRKQA	not soluble
MDYSSSLPQSDRSTSTAAGHWVLARAGKRVLRPGGLKLTKRMLSAADMQGKEIVEFAPGLGRTAQLIVTEGVSSYVGVDQDSAAVARVEAIVKPHGGTVINAKAHDTGLSGESAEVVVGEAMLTMQGEKAKAEIVAEAFRLLKPGGYYAIHELGLTPNDIDPELADGLRKQLAQTIRVNARPLTENEWRTVLTNAGFEVEWISFAPMALLSPKRNLADEGFLGVVRIIRNLIRDKALRARVFQMRSTFNKYRDHLTGIAIVAKKPSN	not soluble
MDYTIVVSATASDAAPLKFLAPYSGCAIGEHFLDNGKHALIIFDDLSKKAANCHVVCRTDEIELDILNRMEEDIKLHPLTWYDIWSSLETKIKVVRARIPKSLSRR	not soluble
MEDLDFPICILKMNLQCCEDFPSRVKKLLRQVKGVYAITIDPVKGLILVCGTAEPSVLIKAVAKLGQSPQLYAYEKDPATAKTRFRTLLKRYATNKTQDKPSPPAPPVTATTPVETCPAGGETFRGFGYPGPTTMMQMPAFSLPPPRGLPGWLAPPTNPRLKYEEPKVTPRKPPAPYPFDYYENLGFPPSDSLFNYFSDDNPQPCSIM	soluble
MEDLIDGIIFAANYLGSTQLLSDKTPSKNVRMMQAQEAVSRIKMAQKLAKSRKKAPEGESQPMTEVDLFILTQRIKVLNADTQETMMDHPLRTISYIADIGNIVVLMARRRIPRSNSQENVEASHPSQDGKRQYKMICHVFESEDAQLIAQSIGQAFSVAYQEFLRANGINP	soluble
MEDLTNVSSLLNMERARDKANEEGLALLQEEIDKMVETTELMTGNIQSLKNKIQILASEVEEEEERVKQMHQINSSGVLSLPELSQKTLKAPTLQKEILALIPNQNALLKDLDILHNSSQMKSMSTFIEEAYKKLDAS	soluble
MEDNRVEEDGEVKSDVGTSSDEKASDSEVEKRQRTDSERSGKDKKKKHKKEKKHKKDKKHKKEKKHKREKEVEMENDGPPAKKRTLEEVDTKKDESKKKEAKESSRNNEDELRNPPRRERSKSAERRDRELRERRDAERRDRSLSKERRLIQRKREDNRRDPRAHEGNRRRDRTPERFRNNRDRRDRDGRREDRHRRSPDRRRDSDRKREDGKRKDESKDVEWNLDSDSDDEQKKIEAARKRRIQIIKKIEGHTEENTPRDSSTPRSDTIGDKKTDESEDSSSDSEDDEDDRKLAEAKDLIKSTRFGSEQGSGASTPVSIQSDNDTPTDFFSGLRDKMVHMKDADEHNVDEVLQRGKDEEYREDWHTQLKEQEKREEEEKKKKLEAEAAAEAAKKKKQEEDDTGFDMFADNEELPQDSTTIDGHSGAVHDTLKDNWDDVEGYYRVRIGELLDTRYRVVGFTGAGVFGNVCRCNDQTKGNTVAVKIIRNNEVMYKTGLRELEVLRKLNEADKEDKYHCLRLFRTFKHHNHLCLVFENLSMNLRELLKKYGQKDGLHLKAVRSYAQQLLLALRLLKKLEFVHADIKPDNILVNESKLTLKLCDFGSAGRVNEQELAPYLVSRFYRAPEIMLGVRHDYAIDLWSVAVTLYEVYTGKIMFPGRTNNHMLKLFTDVKGKYPNKLVRKSQFKDTHFDVNCNLLYQEVDKVTERNKITVLANLKPTRDLESELIAGQRLSRDQMDQIQAFRTLLDGMLILDPSKRTTCNEALKHPFFTIPIK	soluble
MEDPVFTFGLIADVQYADIEDGENYLRTRRRYYRGSADLLRDAVLQWRRERVQCVVQLGDIIDGHNRRRDASDRALDTVMAELDACSVDVHHVWGNHEFYNFSRPSLLSSRLNSAQRTGTDTGSDLIGDDIYAYEFSPAPNFRFVLLDAYDLSVIGREEESEKHTHSWRILTQHNHNLQDLNLPPVSVGLEQRFVKFNGGFSEQQLQWLDAVLTLSDHKQERVLIFSHLPVHPCAADPICLAWNHEAVLSVLRSHQSVLCFIAGHDHDGGRCTDSSGAQHITLEGVIETPPHSHAFATAYLYEDRMVMKGRGRVEDLTITYS	not soluble
MEEDSREDDFNGKIRRSLCEWLGPFEEFHDRVAKNQQTSRHGLIRSKMKPRPSPFVTLQAPPHESPSHVPVHVALQSMKNLVDERITEITHHEFADLKKGMNNVKSSATSSTDKKRKIGEDEDSQIEVKRKKESRNYIPPSTPDSGTHSTESDMIEEPNSDEVAAMLSIMKTLDTPKLSPLPKDFKVVCKEDEQPGPSSSKFPSDSSVSAASTSRESTPEPKLLGTLRIKALKPERVQKLIELAKTRGKLTDVVEVEKKVVEKVVEKQEKRVLEPLPPPPRPPSVPAVPAVPTPSRDPILGPGSGSARNSPLPPQKPANKTVQSLQGLQGSSRTMSPSPRNIRSTTPSVPSRPPSALSTHSHVETEVAAVATTSAPAEASAAVKPRFVCQWSHARLKKAQRVPFPDPSSTSTKTKGEFYHALAKDWKSKADNSKDRVTRPLNYMLSSVFFVLEAIWKADKERTTQSKMQCASIYRDTYELLGVAVFQGVRDTDDSLAVHILPRVKVIGQVMLAVMQYQMYIFRSEQAIKTMSRLDMREVSESIDIRPVSRASDSSSVHSQHLTVPTNKAVTSVAHGTPKPSPSAGSTPSGPTGAPVIPWIASIQACQNMVSMPQIVYDAYKSQLKTANGLMLASRYWEDSKTLSNIIDSGTFVKDVESIVGKSISMDMQFADLATFVLTAVGSLKAEYEEEQKQPAKPILAKVKKGLDLAIRTGTFHSDRPPPVHRPSNNTPDGKARRKQ	not soluble
MEEELPLFSGDSGKPVQATLSSLKMLDVGKWPIFSLCSEEELQLIRQACVFGSAGNEVLYTTVNDEIFVLGTNCCGCLGLGDVQSTIEPRRLDSLNGKKIACLSYGSGPHIVLATTEGEVFTWGHNAYSQLGNGTTNHGLVPCHISTNLSNKQVIEVACGSYHSLVLTSDGEVFAWGYNNSGQVGSGSTVNQPIPRRVTGCLQNKVVVTIACGQMCCMAVVDTGEVYVWGYNGNGQLGLGNSGNQPTPCRVAALQGIRVQRVACGYAHTLVLTDEGQVYAWGANSYGQLGTGNKSNQSYPTPVTVEKDRIIEIAACHSTHTSAAKTQGGHVYMWGQCRGQSVILPHLTHFSCTDDVFACFATPAVTWRLLSVEPDDHLTVAESLKREFDNPDTADLKFLVDGKYIYAHKVLLKIRCEHFRSSLEDNEDDIVEMSEFSYPVYRAFLEYLYTDSISLSPEEAVGLLDLATFYRENRLKKLCQQTIKQGICEENAIALLSAAVKYDAQDLEEFCFRFCINHLTVVTQTSGFAEMDHDLLKNFISKASRVGAFKN	not soluble
MEEIDDKSKFKVPSWAAKPPNGAHLDVQKGDALIQKLLIDDKKAYYFGRNNKQVDFAVEHASCSRVHALLLYHGLLQRFALIDMDSSHGTFLGNVRLRPLEVVFMDPGTQFHLGASTRKYSVRLKTEHHVEDDPTVAASDEQLDHQTSYNTAQNRRIPQLPISVEEARRKKRPRGNVAFLEEEEVINPEDVDPSVGRFRNLVTTAIISTNPNKRPGDPKRSEPPRKIVRPGRELMSAPLSSTFGPMALNAAPDLELYGKLLPEPGHHQYVTSTATEDEADDHHKKRYAKEAWPGRKPGAGIF	soluble
MEELASLTKTADGKVLTSVTQKRNRADAATYIGKGKVEELKALVEELEADLLIFNDELSPSQLKSLATAIEVKMIDRTQLILDILAKRARTREGKLQIELAQLQYALPRLTGQGINLSRQGGGIGARGPGETKLETDRRHIRNRIHEINTQVSTVIRHRSRYRERRKKNGVLQIALVGYTNAGKSTWFNRLTSADSYEEDLLFATLDPMTRKMVLPSGYSVLLSDTVGFIQDLPTTLIAAFRSTLEEVKEADLILHLIDSSNEDYAGHEKTVLRLLEELEADDIPMLTAYNKRDQKLPDFYRPPEGITLWSVRNLRTTLQPLKKRFSAICAKNCLEHHHHHH	not soluble
MEENSADIENRPVAAFRPAVSVPMPVLPQDGEVFVGPGGKKDAQKIGLGLSKLSSKRKDDIQMAKKYAMDISIKQILLRQQKQQQENQQRQQMYSQALSIMSRIYVGSISFEIREDMLRRAFDPFGPIKSINMSWDPATGHHKTFAFVEYEVPEAALLAQESMNGQMLGGRNLKVNSMMFQEMRLPQNMPQAQPIIDMVQKDAKKYFRVYVSSVHPDLSETDLKSVFEAFGEIVKCQLARAPTGRGHRGFGYLEFNNLTSQSEAIAGMNMFDLGGQYLRVGKCVTPPDALTYLQPASVSAIPASVSVACAAITAKVMAAEAAAGSSPKTPSESGGSRAASPAPRAQSPATPSSSLPTDIENKAVISSPKKEPEEIEVPPLPPSAPDVVKDEPMEIEEEEEYTIPEEKPKPVAIVPPPGLAIPSLVAPPGLIAPTEIGIVVPNPSFLAQQQQKIEEKIEEEEEARTERVKLSTSQRKKMKREKLNQMTFEEKMAQVLGQQKAVQNQRMADPVTFGALDDTVAWKDPSNEDQTSEDGKMLAIMGPGRGGDNVASMALALMDGGSSLMLANNAKAKEAAAALALEPKKKKKVKEGKKIQPKLNTAQALAAAAKAGEMSDALKNEVMNSEDASLASQEGLEIRGNDARHLLMTKLMRTNRSNVIVLRNMVTPQDIDEFLEGEIREECGKYGNVIDVVIANFASSGLVKIFVKYSDSMQVDRAKAALDGRFFGGNTVKAEAYDQILFDHADYTG	not soluble
MEERDRVKITDRLARPLRDLRLSVIDQCNFRCVYCMPAEVFGPNFRFLAEDQLLTVEEMALLAECFVELGVEKIRLTGGEPLLRRDLDALIERLSALPGLRDIGLTTNGVHLVKWAQRLKAAGLKRVNVSLDALDDDIFRKMNGIGVGAAPVLKGIEAALAAGLGVKVNMVVKKGWNDSQIVPMAAYFKDLGIPLRLIEFMDVGTTNGWDYSHVVTKKEMYEQINAMHPLEPVEKEYFGEVASRYRYAGTNVEVGFIASVTETFCQSCTRARISADGKLYTCLFASKGVSLKDKLRAGEGKEEIKALITTVWNRRTDRYSEERTAETAKQRPKIEMSYIGG	not soluble
MEERPSETNSNVDSSAQPSVAQLAGRFREHAAVARETPASKPTRRKPPCSLPLFPPKVELGQNGEEKSPSGASHPPKIKVKSSPLIEKLQANLAFDPAALLPGASPKSPGLKAIISPFHSPPSTPSSPGIRSHPSEAEEVPVSFDQPPEGTHLPSYNKVRTRGSIKRRPPSRRFRRSQSDCGDFRDYRAVEPSQENGAREENGDDVFPSKSKDPGSPQLNQEAMADGVEGTPRSAEKPRRRNTCNSTEKPEELVRTPEEANAGEKVGQNPDTASQGHPEVQAPSQTGSPEAENGCGSPREETAPGEHTDTGKATEGTASEERVADEDRLGQKSPDANMPEEEGVVREKAPQTSSGKAEGTTIAEPDTKQKEEAPLEPSCSPGADHAAGEITSEIQNEKAVSMDDIPIEDTRM	not soluble
MEFDPVKINTSSIDHVTILQYIDEPNDIRLTVCIIRNINNITYYINITKINPHLANRFRAWKKRIAGRDYMTNLSRDTGIQQSKLTETIRNCQKNKNIYGLYIHYNLVINVVIDWITDVIVQSILRGLVNWYIANNTYTPNTPNNTTTISELDIIKILDKYEDMYRVSKEKECGICYEVVYSKRLENDRYFGLLDSCNHIFCITCINIWHRTRRETGALDNCPICRTRFRKITMSKFYKLVN	not soluble
MEGMDPLAVLAESRLLPLLTVRGGEDLLGLARVLEEEGVGALEITLRTEKGLEALKALRKSGLLLGAGTVRSPKEAEAALEAGAAFLVSPGLLEEVAALAQARGVPYLPGVLTPTEVERALALGLSALKFFPAEPFQGVRVLRAYAEVFPEVRFLPTGGIKEEHLPHYAALPNLLAVGGSWLLQGNLEAVRAKVRAAKALLSPQAPG	soluble

Reference: the DeepSol protein solubility set
